Experimental data from publication PMC9865144, “Crystal Structure of the SH3 Domain of ASAP1 in Complex with the Proline Rich Motif (PRM) of MICAL1 Reveals a Unique SH3/PRM Interaction Mode” (International Journal of Molecular Sciences, 2023).
Where two headings read alike, the source gives them in different places.

Columns and labels:
APC PRM (Homo sapiens) = APC PRM (Homo sapiens) (UniProt P25054); details: cited from earlier work
FAK1 = target: T1, FAK1 (Homo sapiens (Human), UniProt Q05397); experiment: ITC, Trx fusions
T1 chain: EAPPKPSRPGYPSPR

MICAL1 = target: T2, MICAL1 (Homo sapiens (Human), UniProt Q8TDZ2); experiment: ITC, Trx fusions
T2 chain: EPPPKPPRSCSALAR

FYB1 = target: T3, FYB1 (Homo sapiens (Human), UniProt O15117); experiment: ITC, Trx fusions
T3 chain: TLGPPPPKPNRPPNV

[1] = target: ASAP1-SH3 (residue 1087–1147) (mouse) (UniProt Q9QWY8); experiment: ITC; PEAQ-ITC; 400 μM in the syringe, 40 μM in the cell; 50 mM Tris pH 7.5, 100 mM NaCl, 1 mM DTT, 1 mM EDTA; one-site binding model
[2] = target: T4, ASAP1-SH3 (residue 1087–1147) (mouse, UniProt Q9QWY8 1087-1147); experiment: ITC
T4 chain: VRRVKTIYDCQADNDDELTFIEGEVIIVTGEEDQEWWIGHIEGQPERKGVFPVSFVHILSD

[3] = target: T5, SKAP1-SH3 (residue 294–355) (human, UniProt Q86WV1 294-355); experiment: ITC
T5 chain: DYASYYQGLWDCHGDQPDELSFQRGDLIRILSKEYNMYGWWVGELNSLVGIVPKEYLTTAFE

[4] = target: T6, GRAF2-SH3 (residue 728–786) (human, UniProt A1A4S6 728-786); experiment: ITC
T6 chain: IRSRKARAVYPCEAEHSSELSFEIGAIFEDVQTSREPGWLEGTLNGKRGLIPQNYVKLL

[5] = target: T4, ASAP1-SH3 (residue 1087–1147); experiment: ITC
[6] = target: T7, ASAP1-SH3 (residue 1087–1147), Q9QWY8; experiment: ITC; details: chain shown with the change
T7 chain: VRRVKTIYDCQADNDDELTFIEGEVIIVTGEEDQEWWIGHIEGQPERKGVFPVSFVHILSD

[7] = target: T8, SKAP1-SH3 (residue 294–355) (human, UniProt Q86WV1 294-355); experiment: ITC; PEAQ-ITC; 400 μM in the syringe, 40 μM in the cell; 50 mM Tris pH 7.5, 100 mM NaCl, 1 mM DTT, 1 mM EDTA; one-site binding model; details: both partners purified
T8 construct: SKAP1 (Src kinase associated phosphoprotein 1), human, SH3 domain, residue 294-355; also called SH3^AGS of SKAP1; source: E. coli BL21(DE3), purified (Ni-NTA, Superdex-200 gel filtration)
T8 sequence (looked up): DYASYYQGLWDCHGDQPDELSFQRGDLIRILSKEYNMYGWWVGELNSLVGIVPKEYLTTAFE

[8] = target: T9, ASAP1-SH3 (residue 1087–1147) (mouse, UniProt Q9QWY8 1087-1147); experiment: as above; details: both partners purified
T9 construct: ASAP1, mouse, SH3 domain, residue 1087-1147; The Trx-His6 tag is followed by a 3C protease cleavage site; The limits are stated for the crystallisation; also called SH3 domain of ASAP1; source: E. coli BL21(DE3), purified (Ni-NTA, Superdex-200 gel filtration)
T9 sequence (looked up): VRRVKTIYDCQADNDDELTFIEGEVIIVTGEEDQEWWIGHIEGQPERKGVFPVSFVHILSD

[9] = target: T10, GRAF2-SH3 (residue 728–786) (human, UniProt A1A4S6 728-786); experiment: as above; details: both partners purified
T10 construct: GRAF2 (GTPase Regulator associated with focal adhesion kinase 2), human, SH3 domain, residue 728-786; also called SH3^AGS of GRAF2; source: E. coli BL21(DE3), purified (Ni-NTA, Superdex-200 gel filtration)
T10 sequence (looked up): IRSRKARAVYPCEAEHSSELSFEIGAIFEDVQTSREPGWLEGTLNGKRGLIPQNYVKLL

MICAL1-PRM, Q8TDZ2 = target: T11, MICAL1-PRM, Q8TDZ2; experiment: ITC; details: chain shown with the change
T11 chain: EPPPKPPRSCSALAR

## ASAP1 SH3 (from UniProt Q9ULH1)
APC PRM (Homo sapiens)
  Kd: 24 µM

B1: GRAF2_SH3 (protein)
chain: IRSRKARAVYPCEAEHSSELSFEIGAIFEDVQTSREPGWLEGTLNGKRGLIPQNYVKLL
FAK1
  Kd: 6.06 µM
MICAL1
  Kd: 1.33 µM
FYB1
  Kd: 3.14 µM

## EPPPKPPRSCSALAR [MICAL1-PRM]
[1]
  Kd: 1 µM
[2]
  Kd: 0.8 µM

## RPPNVDLTKFHKTSS [FYB1-PRM (residue 362–376)]
[3]
  Kd: 0.29 µM
[4]
  Kd: 3.14 µM
[5]
  Kd: 7.59 µM

B2: SKAP1_SH3 (protein)
chain: DYASYYQGLWDCHGDQPDELSFQRGDLIRILSKEYNMYGWWVGELNSLVGIVPKEYLTTAFE
FAK1
  Kd: 7.08 µM
MICAL1
  Kd: 5.99 µM
FYB1
  Kd: 0.29 µM

## EPPPPPPRSCSALAR [MICAL1-PRM, Q8TDZ2 K832P]
[6]
  Kd: 17 µM

B3: MICAL1-loop3 (domain or fragment)
chain: AEGSDRGPESPELPTPSENSMPPGLSTPTASQEGAGPVPDPSQPTRRQIRLSSPERQRLSSLNLTPDPEMEPPPKPPRSCSALARHALESSFVGWGLPVQSPQALVAMEKEEKESPFSSEEEEEDVPLDSDVEQALQTFAKTSGTMNNYPTWRRTLLRRA
[2]
  Kd: 1.1 µM

B4: FAK1-PRM (residue 710–724) (peptide, UniProt Q05397 710-724, looked up)
chain: EAPPKPSRPGYPSPR
notes: FAK1, human, proline rich motif, residue 710-724; also called PRM^Px+P from FAK1; source: E. coli BL21(DE3), purified (Ni-NTA, Superdex-200 gel filtration)
[7]
  binding result: binds
[8]
  binding result: binds
[9]
  binding result: binds

## EPPPRPPRSCSALAR [MICAL1-PRM, Q8TDZ2 K832R]
[6]
  Kd: 0.35 µM

B5: ASAP1-SH3 (residue 1087–1147), Q9QWY8 D1099K (protein)
chain: VRRVKTIYDCQAKNDDELTFIEGEVIIVTGEEDQEWWIGHIEGQPERKGVFPVSFVHILSD
MICAL1-PRM, Q8TDZ2
  Kd: 109 µM

B6: ASAP1-SH3 (residue 1087–1147), Q9QWY8 C1096F (protein)
chain: VRRVKTIYDFQADNDDELTFIEGEVIIVTGEEDQEWWIGHIEGQPERKGVFPVSFVHILSD
MICAL1-PRM, Q8TDZ2
  Kd: 15.7 µM

B7: ASAP1_SH3 (protein)
chain: VRRVKTIYDCQADNDDELTFIEGEVIIVTGEEDQEWWIGHIEGQPERKGVFPVSFVHILSD
FAK1
  Kd: 1.97 µM
MICAL1
  Kd: 0.82 µM
FYB1
  Kd: 7.59 µM
